Source: US20020142976A1, “Materials and methods for modulating differentiation” (ICOS Corporation, priority 1998, published 2002)

Molecular target: T1, ATR (Mus musculus, UniProt Q9JKK8)
T1 construct: from tissue; host or cells: mouse testes extract
Test: MyoD phosphorylation (ATR kinase) assay with MyoD-derived peptide substrates
Format: biochemical
Conditions: in vitro kinase assay, 32P-γATP, room temperature 40 minutes
Method: ATR was captured on a 96 well plate previously coated first with goat anti-mouse antibodies (Pierce) and secondly with anti-ATR antibody 224C. A hybridoma which secretes antibody 224C was deposited with the American Type Culture Collection (ATCC), 12301 Parklawn Drive, Rockville, Md. 20852 on Nov. 7, 1996 and assigned ATCC Accession Nos. HB 12233. The 224C antibody was added to the plate at a concentration of […] in BT blocking buffer and incubated for at least 30 hours at 4° C. The wells were washed with TBS containing 0.05% Tween® 20 and mouse testes extract (prepared as described in Example 6 of WO 97/18323 published May 22, 1997 from International Application No. PCT/US96/19337, incorporated herein by reference) was added. […]
The supernatant, containing the ^32P-labeled peptide was transferred to P81 phosphocellulose paper, the paper was washed three times with 100 mM phosphoric acid (to remove unincorporated label) and once with ethanol, and Cerenkov radiation (in counts per minute, cpm) was counted in a scintillation counter.
MyoD is a 319 amino acid transcription factor that is often phosphorylated in cells. As described in Example 6 (of WO 97/18323), it has been determined that ATR phosphorylates MyoD in in vitro kinase assays and the target serine residue in myoD has been identified using a MyoD deletion peptide, B-HLH containing amino acids 102 through 165. […]

T1 sequence (Q9JKK8 whole entry): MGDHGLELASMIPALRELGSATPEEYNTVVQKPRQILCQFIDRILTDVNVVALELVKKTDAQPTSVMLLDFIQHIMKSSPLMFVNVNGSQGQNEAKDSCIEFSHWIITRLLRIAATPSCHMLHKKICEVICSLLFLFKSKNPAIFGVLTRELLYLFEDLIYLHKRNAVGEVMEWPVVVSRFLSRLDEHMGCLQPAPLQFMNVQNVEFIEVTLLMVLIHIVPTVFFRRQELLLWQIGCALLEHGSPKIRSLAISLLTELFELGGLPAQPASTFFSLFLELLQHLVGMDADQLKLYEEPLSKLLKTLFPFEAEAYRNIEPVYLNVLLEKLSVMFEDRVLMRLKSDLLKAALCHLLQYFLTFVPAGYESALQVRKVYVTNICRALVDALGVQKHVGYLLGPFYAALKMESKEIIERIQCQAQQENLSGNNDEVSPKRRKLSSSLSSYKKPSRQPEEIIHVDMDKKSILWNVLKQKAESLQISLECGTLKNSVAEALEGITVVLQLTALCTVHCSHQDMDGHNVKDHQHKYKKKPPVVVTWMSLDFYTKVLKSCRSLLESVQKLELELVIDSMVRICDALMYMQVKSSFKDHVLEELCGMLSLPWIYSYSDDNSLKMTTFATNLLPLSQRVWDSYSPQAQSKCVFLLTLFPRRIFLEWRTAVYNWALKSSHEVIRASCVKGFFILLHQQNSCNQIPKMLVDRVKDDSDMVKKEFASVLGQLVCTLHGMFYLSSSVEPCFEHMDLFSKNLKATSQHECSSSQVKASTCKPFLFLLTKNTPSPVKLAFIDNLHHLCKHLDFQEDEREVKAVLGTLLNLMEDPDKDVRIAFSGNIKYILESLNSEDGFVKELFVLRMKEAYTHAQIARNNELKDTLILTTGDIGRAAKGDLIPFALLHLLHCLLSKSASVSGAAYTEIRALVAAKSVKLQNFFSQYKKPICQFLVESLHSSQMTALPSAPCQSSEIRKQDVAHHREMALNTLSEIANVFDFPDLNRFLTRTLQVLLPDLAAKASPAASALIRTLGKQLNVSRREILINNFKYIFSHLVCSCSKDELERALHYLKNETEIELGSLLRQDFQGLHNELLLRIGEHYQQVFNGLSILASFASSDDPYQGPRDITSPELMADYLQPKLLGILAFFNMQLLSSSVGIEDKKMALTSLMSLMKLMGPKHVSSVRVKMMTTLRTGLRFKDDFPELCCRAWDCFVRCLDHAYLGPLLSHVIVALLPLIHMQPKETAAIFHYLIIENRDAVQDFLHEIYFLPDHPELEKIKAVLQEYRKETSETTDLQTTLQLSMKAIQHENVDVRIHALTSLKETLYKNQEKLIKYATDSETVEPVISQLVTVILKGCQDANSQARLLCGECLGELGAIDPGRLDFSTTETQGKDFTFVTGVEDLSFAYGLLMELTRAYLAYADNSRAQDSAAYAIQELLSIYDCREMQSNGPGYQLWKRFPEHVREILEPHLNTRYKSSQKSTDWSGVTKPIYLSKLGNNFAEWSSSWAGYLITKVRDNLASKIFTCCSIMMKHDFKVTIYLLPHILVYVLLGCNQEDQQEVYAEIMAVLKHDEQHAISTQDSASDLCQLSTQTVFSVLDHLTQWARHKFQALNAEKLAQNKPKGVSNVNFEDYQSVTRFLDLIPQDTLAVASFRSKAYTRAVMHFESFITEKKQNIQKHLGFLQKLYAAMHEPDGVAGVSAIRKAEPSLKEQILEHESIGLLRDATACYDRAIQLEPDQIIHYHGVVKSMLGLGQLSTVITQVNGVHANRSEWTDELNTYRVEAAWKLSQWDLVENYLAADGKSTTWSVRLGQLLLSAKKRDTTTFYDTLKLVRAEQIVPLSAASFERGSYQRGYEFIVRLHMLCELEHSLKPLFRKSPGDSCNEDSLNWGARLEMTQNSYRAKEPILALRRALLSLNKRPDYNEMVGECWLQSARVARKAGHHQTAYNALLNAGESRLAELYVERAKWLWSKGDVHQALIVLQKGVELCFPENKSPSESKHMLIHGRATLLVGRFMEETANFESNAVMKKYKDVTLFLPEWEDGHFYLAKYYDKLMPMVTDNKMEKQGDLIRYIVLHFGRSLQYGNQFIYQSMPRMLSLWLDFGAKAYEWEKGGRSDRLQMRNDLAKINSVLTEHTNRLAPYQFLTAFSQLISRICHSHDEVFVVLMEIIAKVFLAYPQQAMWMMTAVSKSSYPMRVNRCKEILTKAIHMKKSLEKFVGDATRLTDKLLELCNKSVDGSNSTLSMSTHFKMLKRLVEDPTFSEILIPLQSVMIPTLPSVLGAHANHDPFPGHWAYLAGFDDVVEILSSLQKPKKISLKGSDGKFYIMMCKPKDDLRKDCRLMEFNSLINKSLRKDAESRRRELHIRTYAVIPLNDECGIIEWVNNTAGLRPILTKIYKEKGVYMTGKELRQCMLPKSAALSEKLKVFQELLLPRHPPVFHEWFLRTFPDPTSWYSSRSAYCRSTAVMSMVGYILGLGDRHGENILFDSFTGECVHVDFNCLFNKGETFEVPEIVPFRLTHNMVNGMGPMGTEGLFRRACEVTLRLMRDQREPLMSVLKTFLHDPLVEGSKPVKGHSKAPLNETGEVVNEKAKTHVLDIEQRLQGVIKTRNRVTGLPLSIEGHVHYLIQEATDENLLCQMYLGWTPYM
T1 sequence (Q8BMG1 whole entry partner): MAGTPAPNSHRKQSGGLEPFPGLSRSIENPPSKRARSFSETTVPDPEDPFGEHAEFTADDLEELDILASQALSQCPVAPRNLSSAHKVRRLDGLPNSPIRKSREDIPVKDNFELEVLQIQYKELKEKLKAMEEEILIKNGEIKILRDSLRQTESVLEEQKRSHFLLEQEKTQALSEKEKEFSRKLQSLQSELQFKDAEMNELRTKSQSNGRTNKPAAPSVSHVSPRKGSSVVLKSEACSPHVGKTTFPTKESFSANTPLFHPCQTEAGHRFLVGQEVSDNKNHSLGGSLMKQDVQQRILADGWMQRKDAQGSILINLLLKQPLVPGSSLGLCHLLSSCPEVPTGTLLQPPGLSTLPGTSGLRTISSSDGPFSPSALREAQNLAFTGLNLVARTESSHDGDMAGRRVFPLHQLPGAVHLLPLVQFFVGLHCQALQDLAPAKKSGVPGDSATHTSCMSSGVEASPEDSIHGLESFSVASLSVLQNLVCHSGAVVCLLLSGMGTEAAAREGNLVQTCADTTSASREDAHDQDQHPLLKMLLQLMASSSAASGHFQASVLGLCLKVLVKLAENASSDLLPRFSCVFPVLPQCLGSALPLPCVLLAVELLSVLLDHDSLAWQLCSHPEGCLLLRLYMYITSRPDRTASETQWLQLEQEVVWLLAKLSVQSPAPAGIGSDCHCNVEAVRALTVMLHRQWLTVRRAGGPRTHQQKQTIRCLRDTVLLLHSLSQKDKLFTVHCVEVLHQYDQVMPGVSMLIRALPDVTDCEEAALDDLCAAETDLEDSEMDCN

phosphorylation of peptide by ATR: phosphorylated
Substance: NH2-Leu-Lys-Arg-Cys-Thr-Ser-Ser-Asn-Pro-Asn-Gln-Arg-Leu-Pro-Lys-COOH (H-LKRCTSSNPNQRLPK-OH) [IDH22]
